The values below come from patent US20260250651, “CAS12 PROTEINS AND USES THEREOF” (GUANGZHOU REFORGENE MEDICINE CO., LTD., published 2026).

The series concerns the target T1, Cas12i-135 (N295R,N260R,G705R,L475R).
T1 chain: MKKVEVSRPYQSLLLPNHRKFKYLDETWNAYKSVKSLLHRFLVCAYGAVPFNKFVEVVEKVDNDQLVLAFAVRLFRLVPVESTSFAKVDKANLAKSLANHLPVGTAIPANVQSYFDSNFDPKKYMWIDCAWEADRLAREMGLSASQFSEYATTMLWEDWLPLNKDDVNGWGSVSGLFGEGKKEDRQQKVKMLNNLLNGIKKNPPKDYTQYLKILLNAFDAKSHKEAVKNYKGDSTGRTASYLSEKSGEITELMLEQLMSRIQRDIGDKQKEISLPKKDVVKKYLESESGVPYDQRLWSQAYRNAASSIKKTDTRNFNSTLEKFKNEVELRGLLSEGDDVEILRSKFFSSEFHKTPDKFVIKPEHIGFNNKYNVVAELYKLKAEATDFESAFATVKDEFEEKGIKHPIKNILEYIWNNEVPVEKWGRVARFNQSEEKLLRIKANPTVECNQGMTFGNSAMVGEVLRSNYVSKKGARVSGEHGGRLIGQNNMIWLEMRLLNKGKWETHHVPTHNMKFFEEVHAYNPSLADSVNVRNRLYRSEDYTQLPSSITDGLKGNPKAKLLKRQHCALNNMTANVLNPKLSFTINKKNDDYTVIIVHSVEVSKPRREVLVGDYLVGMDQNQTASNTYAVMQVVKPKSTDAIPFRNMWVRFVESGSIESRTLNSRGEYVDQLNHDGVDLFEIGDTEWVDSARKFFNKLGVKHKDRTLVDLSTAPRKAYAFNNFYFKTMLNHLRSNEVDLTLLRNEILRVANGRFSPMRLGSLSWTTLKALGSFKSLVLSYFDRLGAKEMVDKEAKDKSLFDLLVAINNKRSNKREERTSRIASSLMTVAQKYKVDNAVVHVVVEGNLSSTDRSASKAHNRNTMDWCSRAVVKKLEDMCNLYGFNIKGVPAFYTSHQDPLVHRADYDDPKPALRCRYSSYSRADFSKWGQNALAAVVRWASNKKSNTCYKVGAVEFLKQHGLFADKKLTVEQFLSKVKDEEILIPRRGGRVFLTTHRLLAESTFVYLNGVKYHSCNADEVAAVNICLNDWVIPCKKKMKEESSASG
Description: cell_activity; 293T indels. The procedure: Plating: The 293T cell line was plated when the confluence reached 70-80%, and the number of cells seeded in a 24-well plate was 5*10\hat{ }5 cells/well.
Transfection: After 12-14 hours of plating, transfection was performed. 100 μl of Opti-MEM, 1.5 μl of PEI (Yisheng Bio, Polyethylenimine Linear (PEI) MW25000), 250 ng of the mutant clone plasmid from Example 2, and 250 ng of gRNA plasmid for targeting endogenous genes were added to each well of a 24-well plate. The mixture was incubated at room temperature for 20 minutes and then added to 293T cells for transfection. After transfection overnight, the medium was replaced with fresh medium and cultured for the next period.
DNA extraction, PCR amplification, and Sanger sequencing: After culturing for 72 hours, cells were washed with PBS, and then 100 μl of cell lysis buffer (Viagen, DirectPCR® Lysis Reagent (Cell)) was added for lysis to obtain a lysate containing genomic DNA. The genomic DNA was amplified in the region near the target sequence, and the PCR product was sent to a sequencing company for Sanger sequencing.

B1: gRNA-TTR ; TTR target (ssRNA ; dsDNA)
RNA: AGAGAAUGUGUGCAUAGUCACACCAGUAAGAUUUGGUGUCUAU
DNA 1: CAGTAAGATTTGGTGTCTAT
DNA 2: ATAGACACCAAATCTTACTG
In the case of B1, the “relative indel editing efficiency” value was 1.73 fold of Cas12i-69.
